US20060148715A1, “Structural requirements for STAT3 binding and recruitment to phosphotyrosine ligands” (BAYLOR COLLEGE OF MEDICINE, priority 2004, published 2006)
Values belong to the molecule of their own block, whether it stands above or below them. Non-standard residues stand in square brackets, D forms with d. No end group written: not given here. *: point of attachment. d‑Biotin‑LC = N-terminal biotin (d-Biotin-LC), O=C(CCCC[C@@H]1SC[C@@H]2NC(=O)N[C@@H]21)NCCCCCC(=O)*; pY = N[C@@H](Cc1ccc(OP(=O)(O)O)cc1)C(=O)O

Tests used:
wild type Stat3 [1] = target: T1, wild type Stat3 (Homo sapiens, UniProt P40763); experiment: Mirror resonance affinity assay (resonant mirror biosensor); format: binding
T1 construct: made in house; host or cells: Sf9 insect cells (baculovirus, pFastBac1)
Procedure: (§1) Kinetics experiments were performed using an lasys Auto+ resonant mirror biosensor (Affinity Sensor, Paramus, N.J.) (see Sadowski et. al, 1986). Briefly, two-welled cuvettes coated on the bottom of each well with biotin were purchased from Affinity Sensor and prepared for immobilization of biotinylated peptides by coating each surface with 0.04 mg/ml NeutrAvidin (Pierce) and washing with PBS-T (20 mM Na Phosphate, 0.05% Tween-20). Biotinylated peptide (5 μg) was added into each well—experimental peptide to one well and control peptide to the other—and change in arc seconds monitored simultaneously in both wells using the biosensor until stable followed by washing with PBS-T. Real-time binding of Stat3 was conducted at 25° C. at a stir speed of 70 for 10 min starting at the lowest concentration of Stat3. The wells were washed out with three changes of 60 μl PBS-T, and dissociation was allowed to proceed for 5 min. Each well bottom was regenerated by washing with […] of 100 mM formic acid for 2 min and equilibrated with PBS-T for the next round of association assay. Data were collected automatically and analyzed with the FASTplot and GraFit software (see Sheinerman et. al, 2003).
(§2) Mirror resonance affinity assay. Two cells of a biotin-coated cuvette pretreated with saturating amounts of NeutrAvidin. One well of the cuvette was pretreated with biotinylated phosphopeptide based on Y1068 (pY1068, left panel), while the other well was pretreated with biotinylated non-phosphorylated peptide Y1068 (Y1068, right panel) as a control for non-specific binding. Wild type or mutated Stat3 protein was added in the concentrations indicated to each of the two cells and mirror resonance measurements recorded continuously for 10 min as shown.
To obtain quantitative kinetic information about the binding of Stat3 to G-CSFR Y704 and Y744 including association rates (kass), disassociation rates (kdiss) and dissociation equilibrium constants (KD), real-time affinity measurements using a mirror resonance biosensor were performed. The biosensor exploits surface plasmon resonance to measure in real time the alteration in the angle of a laser light reflected from a surface upon which binding events are occurring. Biotinylated peptides were immobilized onto the bottom surface of cuvette wells pre-coated with NeutrAvidin. The interaction of peptides with Stat3 added at different concentrations was measured in real time as altered deflection of a laser light striking the bottom surface of the cuvette; the alterations in the deflection angle measured in arc seconds was analyzed with GraFit software. […] The slightly lower KD for Y704 vs. Y744 is attributable to a faster association rate of Stat3 binding to this phosphododecapeptide.

Stat3-3M [2] = target: T2, Stat3-3M (Homo sapiens, UniProt P40763, E638L/Y640F/Y657F); experiment: as above; format: binding
T2 construct: made in house; host or cells: Sf9 insect cells (baculovirus, pFastBac1)
Procedure: as §1, §2

Stat3-4M [3] = target: T3, Stat3-4M (Homo sapiens, UniProt P40763, C687A/Q692L/S691A/Y657F); experiment: as above; format: binding
T3 construct: made in house; host or cells: Sf9 insect cells (baculovirus, pFastBac1)
Procedure: as §1, §2

Stat3-6M [4] = target: T4, Stat3-6M (Homo sapiens, UniProt P40763, C687A/E638L/Q692L/S691A/Y640F/Y657F); experiment: as above; format: binding
T4 construct: made in house; host or cells: Sf9 insect cells (baculovirus, pFastBac1)
Procedure: as §1, §2

wild type Stat3 [5] = target: T1, wild type Stat3; experiment: Phosphopeptide affinity immunoblot (peptide pull-down); format: binding; details: purified wild type Stat3
Procedure: (§3) NeutrAvidin agarose (40 μl; Pierce) was incubated with 10 μg of biotinylated peptide in 300 μl of Buffer A (20 mM HEPES pH 7.5, 20 mM NaF, 1 mM Na3VO4, 1 mM Na4P2O7, 1 mM EDTA, 1 mM EGTA, 20% glycerol, 0.05% NP-40, 1 mM DTT, 1 μg/ml leupeptin, 1 μg/ml aprotinin, 0.5 mM phenylmethylsulfonyl fluoride, 100 mM NaCl) at 4° C. for 2 h and washed with Buffer A 3 times. The NeutrAvidin-peptide complex was then mixed with His-tagged Stat3 protein (5 μg) in 1 ml of Buffer A (without NaCl and NP-40) at 4° C. for 2 h and washed thoroughly. Bound proteins were separated and immunoblotted using Stat3 monoclonal antibody (mAb).
Each peptide was incubated with equal amounts of purified wild type Stat3 protein in peptide pull-down assays (FIG. 1). NeutrAvidin agarose was incubated with the indicated biotinylated peptides (see Table 2 for sequence) or no peptide (CON) as control, washed thoroughly and mixed with identical amount of wild type Stat3. Bound proteins were separated by SDS-PAGE and immunoblotted using Stat3 mAb. Lane ST represents purified wild type Stat3 (0.6 μg) loaded directly onto the gel as positive control. […] Thus, Q at the +3 position of Y1068 phosphopeptide is required for Stat3 binding and appears to be as important for Stat3 binding as phosphorylation on tyrosine. […]

Stat3-3M+K591L = target: T5, Stat3-3M+K591L (Homo sapiens, UniProt P40763, E638L/K591L/Y640F/Y657F); experiment: as above; format: binding
T5 construct: made in house; host or cells: Sf9 insect cells (baculovirus, pFastBac1)
Procedure: as §3
(§4) To test the pocket 1 component of the two models and to ensure that the peptide pull-down system was sufficiently sensitive to detect reduced binding of Stat3 containing mutations in pocket 2, either K591L or R609L was added to the 3M mutant to generate Stat3-3M+K591L and Stat3-3M+R609L.
(§5) To test the pocket 1 component of the two models and to ensure that our peptide pull-down system was sufficiently sensitive to detect reduced binding of Stat3 containing mutations in pocket 2, either K591L or R609L was added to the 3M mutant to generate Stat3-3M+K591L and Stat3-3M+R609L.

Stat3-3M+R609L = target: T6, Stat3-3M+R609L (Homo sapiens, UniProt P40763, E638L/R609L/Y640F/Y657F); experiment: as above; format: binding
T6 construct: made in house; host or cells: Sf9 insect cells (baculovirus, pFastBac1)
Procedure: as §3, §4, §5

Stat3-4M [6] = target: T3, Stat3-4M; experiment: as above; format: binding; details: compared with wild type Stat3
Procedure: as §3
NeutrAvidin agarose was incubated with the indicated biotinylated peptides (see Table 2 for exemplary sequences) or no peptide (CON) as control, washed thoroughly and mixed with identical amounts of wild type or mutant Stat3 proteins as indicated. Bound proteins were separated by SDS-PAGE and immunoblotted using Stat3 mAb. Lane ST represents purified wild type Stat3 (0.6 μg) loaded directly onto the gel as positive control.
Stat3 proteins in which mutations were introduced to alter side chains from charged or polar to non-polar within amino acid residues were predicted in each model to be critical for Stat3 binding (FIG. 1B). The recombinant Stat3 proteins were expressed in Sf9 insect cells and purified to equivalent levels using Ni-NTA resin (FIG. 1C).

Stat3-E638P [7] = target: T7, Stat3-E638P (Homo sapiens, UniProt P40763, E638P); experiment: as above; format: binding
T7 construct: made in house; host or cells: Sf9 insect cells (baculovirus)
Procedure: as §3
In FIG. 5C, NeutrAvidin agarose was incubated with the indicated biotinylated dodecapeptides (see Table 2 for sequence) or no peptide (CON) as control, washed thoroughly and mixed with wild type Stat3 protein. Bound proteins were separated by SDS-PAGE and immunoblotted using Stat3 mAb. Lane ST represents purified wild type Stat3 (0.6 μg) loaded directly onto the gel as a positive control.
To test the contribution of the E638 amide hydrogen to binding to G-CSFR Y704 and Y744 phosphododecapeptide, Stat3-E638P was generated by site-directed mutagenesis, which eliminated the amide hydrogen donor predicted to bind with oxygen within the +3 Q side chain.

Stat3-E638P [8] = target: T8, Stat3-E638P (human, UniProt P40763 1-770); experiment: peptide pull-down: biotinylated peptide on NeutrAvidin agarose, purified His-tagged Stat3 protein added, bound protein immunoblotted with Stat3 mAb
T8 construct: Produced in Sf9 cells; CD spectrum essentially identical to wild type

Stat3-3M [9] = target: Stat3-3M (human, UniProt P40763 1-770, limits assumed); experiment: as above
Stat3-4M [10] = target: Stat3-4M (human, UniProt P40763 1-770, limits assumed); experiment: as above
[11] = target: T9, wild type Stat3 (recombinant human Stat3alpha with N-terminal 6-histidine tag) (human, UniProt P40763 1-770); experiment: as above
T9 construct: Expressed in Sf9 cells and purified on Ni-NTA for peptide assays; expressed from pcDNA3.1 in 293T cells for the G-CSFR co-immunoprecipitation; also called WT; purified Stat3

Stat3-6M [12] = target: Stat3-6M (human, UniProt P40763 1-770, limits assumed); experiment: as above
Sequence of Stat3-6M (human, UniProt P40763 1-770, limits assumed) (P40763 other isoform, or with tags, fused parts or gaps limits assumed): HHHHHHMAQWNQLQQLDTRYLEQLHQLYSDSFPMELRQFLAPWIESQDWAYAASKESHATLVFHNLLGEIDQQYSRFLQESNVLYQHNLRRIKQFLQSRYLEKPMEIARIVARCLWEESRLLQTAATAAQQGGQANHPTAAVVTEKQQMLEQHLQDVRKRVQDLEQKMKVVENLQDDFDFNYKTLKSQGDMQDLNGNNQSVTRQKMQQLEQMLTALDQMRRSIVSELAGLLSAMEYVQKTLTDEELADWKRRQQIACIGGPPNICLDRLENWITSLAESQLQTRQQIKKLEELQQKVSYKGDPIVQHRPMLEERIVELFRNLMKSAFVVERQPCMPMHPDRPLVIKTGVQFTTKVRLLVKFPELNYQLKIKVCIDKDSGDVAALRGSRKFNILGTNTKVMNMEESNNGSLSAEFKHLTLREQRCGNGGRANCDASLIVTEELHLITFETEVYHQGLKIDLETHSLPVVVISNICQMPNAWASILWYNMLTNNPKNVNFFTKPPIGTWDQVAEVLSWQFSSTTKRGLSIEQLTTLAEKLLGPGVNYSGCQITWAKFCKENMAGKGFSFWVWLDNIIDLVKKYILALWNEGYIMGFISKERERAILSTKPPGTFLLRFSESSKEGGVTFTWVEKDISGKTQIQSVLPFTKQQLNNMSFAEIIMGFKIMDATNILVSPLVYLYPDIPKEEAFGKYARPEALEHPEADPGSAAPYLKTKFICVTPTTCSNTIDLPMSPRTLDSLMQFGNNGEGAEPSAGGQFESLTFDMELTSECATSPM

T3 sequence (P40763 whole entry Y657F/C687A/S691A/Q692L): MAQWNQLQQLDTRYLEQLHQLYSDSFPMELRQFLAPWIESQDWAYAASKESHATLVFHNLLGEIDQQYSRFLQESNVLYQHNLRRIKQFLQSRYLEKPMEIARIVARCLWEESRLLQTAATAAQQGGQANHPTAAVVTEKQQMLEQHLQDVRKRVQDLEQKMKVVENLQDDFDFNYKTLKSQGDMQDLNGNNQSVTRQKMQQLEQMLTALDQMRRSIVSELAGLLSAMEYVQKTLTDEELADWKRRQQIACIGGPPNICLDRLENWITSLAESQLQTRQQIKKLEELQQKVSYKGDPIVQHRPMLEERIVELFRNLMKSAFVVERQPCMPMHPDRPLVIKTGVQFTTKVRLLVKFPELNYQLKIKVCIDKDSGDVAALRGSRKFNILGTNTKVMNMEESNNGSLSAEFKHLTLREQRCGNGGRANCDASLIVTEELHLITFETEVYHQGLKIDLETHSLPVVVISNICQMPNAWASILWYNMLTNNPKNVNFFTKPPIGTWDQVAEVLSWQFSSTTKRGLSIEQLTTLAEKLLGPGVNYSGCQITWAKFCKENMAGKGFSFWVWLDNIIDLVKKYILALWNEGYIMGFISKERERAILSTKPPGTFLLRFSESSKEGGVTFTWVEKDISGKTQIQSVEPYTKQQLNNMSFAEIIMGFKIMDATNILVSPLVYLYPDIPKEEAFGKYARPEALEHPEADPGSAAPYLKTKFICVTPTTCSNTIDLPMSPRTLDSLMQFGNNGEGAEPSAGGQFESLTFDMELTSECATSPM
T1 sequence (P40763 whole entry): as the sequence (P40763 whole entry Y657F/C687A/S691A/Q692L) above, with F657Y, A687C, A691S, L692Q counted along it
T8 sequence (P40763 other isoform, or with tags, fused parts or gaps E638P E638P limits assumed): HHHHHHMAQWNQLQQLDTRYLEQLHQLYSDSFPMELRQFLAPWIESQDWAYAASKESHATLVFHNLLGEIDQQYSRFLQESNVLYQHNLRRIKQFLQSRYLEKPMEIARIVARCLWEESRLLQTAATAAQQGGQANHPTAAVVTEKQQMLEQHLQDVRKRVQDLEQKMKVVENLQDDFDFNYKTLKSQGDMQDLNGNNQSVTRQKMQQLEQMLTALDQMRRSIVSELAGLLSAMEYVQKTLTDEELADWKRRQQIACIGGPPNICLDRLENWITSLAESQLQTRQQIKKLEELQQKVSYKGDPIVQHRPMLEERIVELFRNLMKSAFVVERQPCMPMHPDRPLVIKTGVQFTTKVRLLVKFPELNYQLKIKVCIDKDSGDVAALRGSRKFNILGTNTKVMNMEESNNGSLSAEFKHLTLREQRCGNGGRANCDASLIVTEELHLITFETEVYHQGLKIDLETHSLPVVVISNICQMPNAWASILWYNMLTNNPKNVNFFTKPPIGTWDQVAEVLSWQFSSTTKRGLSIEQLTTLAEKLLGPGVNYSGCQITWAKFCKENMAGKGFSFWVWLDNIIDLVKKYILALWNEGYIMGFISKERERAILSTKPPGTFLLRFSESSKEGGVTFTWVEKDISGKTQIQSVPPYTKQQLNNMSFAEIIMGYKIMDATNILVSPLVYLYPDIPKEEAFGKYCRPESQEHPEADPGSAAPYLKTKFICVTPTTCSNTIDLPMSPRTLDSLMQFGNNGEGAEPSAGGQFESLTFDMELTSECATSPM
T4 sequence (P40763 whole entry E638L/Y640F/Y657F/C687A/S691A/Q692L): as the sequence (P40763 whole entry Y657F/C687A/S691A/Q692L) above, with E638L, Y640F counted along it
T6 sequence (P40763 whole entry R609L/E638L/Y640F/Y657F): as the sequence (P40763 whole entry Y657F/C687A/S691A/Q692L) above, with R609L, E638L, Y640F, A687C, A691S, L692Q counted along it
T2 sequence (P40763 whole entry E638L/Y640F/Y657F): as the sequence (P40763 whole entry Y657F/C687A/S691A/Q692L) above, with E638L, Y640F, A687C, A691S, L692Q counted along it
T7 sequence (P40763 whole entry E638P): as the sequence (P40763 whole entry Y657F/C687A/S691A/Q692L) above, with E638P, F657Y, A687C, A691S, L692Q counted along it
T5 sequence (P40763 whole entry K591L/E638L/Y640F/Y657F): as the sequence (P40763 whole entry Y657F/C687A/S691A/Q692L) above, with K591L, E638L, Y640F, A687C, A691S, L692Q counted along it
Sequence of Stat3-4M (human, UniProt P40763 1-770, limits assumed) (P40763 other isoform, or with tags, fused parts or gaps limits assumed): as the sequence (P40763 other isoform, or with tags, fused parts or gaps E638P E638P limits assumed) above, with P644E, Y663F, C693A, S697A, Q698L counted along it
Sequence of Stat3-3M (human, UniProt P40763 1-770, limits assumed) (P40763 other isoform, or with tags, fused parts or gaps limits assumed): as the sequence (P40763 other isoform, or with tags, fused parts or gaps E638P E638P limits assumed) above, with P644L, Y646F, Y663F counted along it
T9 sequence (P40763 other isoform, or with tags, fused parts or gaps limits assumed): as the sequence (P40763 other isoform, or with tags, fused parts or gaps E638P E638P limits assumed) above, with P644E counted along it

Molecule: CC[C@H](C)[C@H](NC(=O)[C@H](Cc1ccc(OP(=O)(O)O)cc1)NC(=O)[C@H](CCC(=O)O)NC(=O)[C@@H]1CCCN1C(=O)[C@@H](NC(=O)[C@@H]1CCCN1C(=O)[C@H](CC(C)C)NC(=O)CCCCCNC(=O)CCCC[C@@H]1SC[C@@H]2NC(=O)N[C@@H]21)C(C)C)C(=O)N[C@@H](CC(N)=O)C(=O)N[C@@H](CCC(N)=O)C(=O)N[C@@H](CO)C(=O)N[C@H](C(=O)N1CCC[C@H]1C(=O)O)C(C)C [Y1068 PDP, LPVPE(pY)INQSVP]
Kd (wild type Stat3 [1]): 223 nM
Kd (Stat3-3M [2]): 177 nM
Kd (Stat3-4M [3]): 271 ± 48 nM
Kd (Stat3-6M [4]): 249 ± 22 nM

Molecule: {d‑Biotin‑LC}-PGPGHYLRCDST [Y744 non-phosphorylated dodecapeptide (G-CSFR)]
binding result (Stat3-E638P [8]): no binding
binding result (Stat3-3M [9]): no binding
binding result (Stat3-4M [10]): no binding
binding result [11]: no binding
binding result (Stat3-6M [12]): no binding

Results, then the molecule that gave them:

Stat3 detected in peptide pull-down (Stat3 immunoblot) (wild type Stat3 [5]): little to no Stat3 was detected
Molecule: LPVPEYINQSVP [unphosphorylated Y1068 dodecapeptide]

binding of Stat3-3M+K591L in peptide pull-down (Stat3-3M+K591L): elimination of binding
binding of Stat3-3M+R609L in peptide pull-down (Stat3-3M+R609L): elimination of binding
level of Stat3-4M bound in peptide affinity immunoblot (Stat3-4M [6]): equal to or greater than wild type Stat3
binding of Stat3-E638P in peptide affinity immunoblot (Stat3-E638P [7]): no binding
Molecule: VQNPV(pY)HNQPLN (VQNPV[pY]HNQPLN) [Y1086 PDP]
